Assay results reported in patent US20210032299A1 (Eli Lilly, published 2021).
Starred links: 1 amine or outer side, 2 acyl side, 3 side chain; linkers in the order of their positions; H or OH if unused. Non-standard residues stand in square brackets, D forms with d. Groups on a side chain read outwards from the residue. No end group written: not given here. *: point of attachment. C20 diacid = O=C(O)CCCCCCCCCCCCCCCCCCC(=O)*; γGlu = O=C(O)[C@H](CCC(=O)[*:2])N[*:1]; αMeF = C[C@](N)(Cc1ccccc1)C(=O)O; 4Pal = N[C@@H](Cc1ccncc1)C(=O)O; αMeL = CC(C)C[C@](C)(N)C(=O)O; AEEA = NCCOCCOCC(=O)O; Aib = CC(C)(N)C(=O)O

How the values were obtained:
Assay in all cases: cell-based or functional assay
[1] = target: T1, human glucose-dependent insulinotropic peptide receptor (human, UniProt P48546 22-466)
T1 sequence (looked up): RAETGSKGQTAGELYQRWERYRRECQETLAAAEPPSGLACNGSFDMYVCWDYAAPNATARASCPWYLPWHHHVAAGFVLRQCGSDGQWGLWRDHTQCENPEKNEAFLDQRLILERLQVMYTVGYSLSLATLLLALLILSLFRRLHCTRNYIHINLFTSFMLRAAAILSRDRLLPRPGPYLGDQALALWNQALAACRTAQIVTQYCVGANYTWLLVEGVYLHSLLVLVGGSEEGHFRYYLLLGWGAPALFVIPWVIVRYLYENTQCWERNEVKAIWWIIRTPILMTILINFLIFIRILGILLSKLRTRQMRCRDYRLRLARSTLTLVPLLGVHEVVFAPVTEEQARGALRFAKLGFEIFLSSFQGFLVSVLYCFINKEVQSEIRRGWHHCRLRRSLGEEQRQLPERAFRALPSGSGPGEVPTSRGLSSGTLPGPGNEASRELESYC

human GLP-1 receptor = human GLP-1 receptor (human, UniProt P43220 24-463)
human glucagon receptor = human glucagon receptor (human, UniProt P47871 26-477)
Chain of human glucagon receptor (P47871 26-477): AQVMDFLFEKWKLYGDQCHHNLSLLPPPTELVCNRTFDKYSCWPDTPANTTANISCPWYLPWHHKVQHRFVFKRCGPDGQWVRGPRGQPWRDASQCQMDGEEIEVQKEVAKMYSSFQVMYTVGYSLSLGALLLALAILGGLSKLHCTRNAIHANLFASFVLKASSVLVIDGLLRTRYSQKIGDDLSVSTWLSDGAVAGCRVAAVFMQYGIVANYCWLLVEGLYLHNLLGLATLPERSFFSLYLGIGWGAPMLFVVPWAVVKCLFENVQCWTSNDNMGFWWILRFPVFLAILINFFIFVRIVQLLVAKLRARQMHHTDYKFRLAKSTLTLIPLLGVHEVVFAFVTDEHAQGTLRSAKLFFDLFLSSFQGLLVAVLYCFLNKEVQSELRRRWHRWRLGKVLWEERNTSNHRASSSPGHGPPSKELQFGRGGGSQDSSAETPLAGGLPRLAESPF

B1: Example 46 (peptide)
peptide: Y[Aib]EGTFISDYSI[αMeL]LDKK([AEEA-AEEA-γGlu-C20 diacid])HQ[Aib]DFVE[4Pal]LLEQGPSSGAPPPS-NH2
modifications: N-terminus assumed
SMILES: CC[C@H](C)[C@H](NC(=O)[C@H](Cc1ccccc1)NC(=O)[C@@H](NC(=O)CNC(=O)[C@H](CCC(=O)O)NC(=O)C(C)(C)NC(=O)[C@@H](N)Cc1ccc(O)cc1)[C@@H](C)O)C(=O)N[C@@H](CO)C(=O)N[C@@H](CC(=O)O)C(=O)N[C@@H](Cc1ccc(O)cc1)C(=O)N[C@@H](CO)C(=O)N[C@H](C(=O)N[C@@](C)(CC(C)C)C(=O)N[C@@H](CC(C)C)C(=O)N[C@@H](CC(=O)O)C(=O)N[C@@H](CCCCN)C(=O)N[C@@H](CCCCNC(=O)COCCOCCNC(=O)COCCOCCNC(=O)CC[C@H](NC(=O)CCCCCCCCCCCCCCCCCCC(=O)O)C(=O)O)C(=O)N[C@@H](Cc1c[nH]cn1)C(=O)N[C@@H](CCC(N)=O)C(=O)NC(C)(C)C(=O)N[C@@H](CC(=O)O)C(=O)N[C@@H](Cc1ccccc1)C(=O)N[C@H](C(=O)N[C@@H](CCC(=O)O)C(=O)N[C@@H](Cc1ccncc1)C(=O)N[C@@H](CC(C)C)C(=O)N[C@@H](CC(C)C)C(=O)N[C@@H](CCC(=O)O)C(=O)N[C@@H](CCC(N)=O)C(=O)NCC(=O)N1CCC[C@H]1C(=O)N[C@@H](CO)C(=O)N[C@@H](CO)C(=O)NCC(=O)N[C@@H](C)C(=O)N1CCC[C@H]1C(=O)N1CCC[C@H]1C(=O)N1CCC[C@H]1C(=O)N[C@@H](CO)C(N)=O)C(C)C)[C@@H](C)CC
- hGIPR cAMP Rel EC50 [1]: 0.0294 nM
- hGLP1R cAMP Rel EC50 (human GLP-1 receptor): > 5000 nM
- hGcgR cAMP Rel EC50 (human glucagon receptor): 0.863 µM

B2: Example 41 (peptide)
peptide: Y[Aib]EGT[αMeF]ISDYSIALDKK([AEEA-AEEA-γGlu-C20 diacid])HQ[Aib]DFVE[4Pal]LLETGPSSGAPPPS-NH2
modifications: N-terminus assumed
SMILES: CC[C@H](C)[C@H](NC(=O)[C@H](CO)NC(=O)[C@H](Cc1ccc(O)cc1)NC(=O)[C@H](CC(=O)O)NC(=O)[C@H](CO)NC(=O)[C@@H](NC(=O)[C@](C)(Cc1ccccc1)NC(=O)[C@@H](NC(=O)CNC(=O)[C@H](CCC(=O)O)NC(=O)C(C)(C)NC(=O)[C@@H](N)Cc1ccc(O)cc1)[C@@H](C)O)[C@@H](C)CC)C(=O)N[C@@H](C)C(=O)N[C@@H](CC(C)C)C(=O)N[C@@H](CC(=O)O)C(=O)N[C@@H](CCCCN)C(=O)N[C@@H](CCCCNC(=O)COCCOCCNC(=O)COCCOCCNC(=O)CC[C@H](NC(=O)CCCCCCCCCCCCCCCCCCC(=O)O)C(=O)O)C(=O)N[C@@H](Cc1c[nH]cn1)C(=O)N[C@@H](CCC(N)=O)C(=O)NC(C)(C)C(=O)N[C@@H](CC(=O)O)C(=O)N[C@@H](Cc1ccccc1)C(=O)N[C@H](C(=O)N[C@@H](CCC(=O)O)C(=O)N[C@@H](Cc1ccncc1)C(=O)N[C@@H](CC(C)C)C(=O)N[C@@H](CC(C)C)C(=O)N[C@@H](CCC(=O)O)C(=O)N[C@H](C(=O)NCC(=O)N1CCC[C@H]1C(=O)N[C@@H](CO)C(=O)N[C@@H](CO)C(=O)NCC(=O)N[C@@H](C)C(=O)N1CCC[C@H]1C(=O)N1CCC[C@H]1C(=O)N1CCC[C@H]1C(=O)N[C@@H](CO)C(N)=O)[C@@H](C)O)C(C)C
- hGIPR cAMP Rel EC50 [1]: 0.0281 nM
- hGLP1R cAMP Rel EC50 (human GLP-1 receptor): 1800 nM
- hGcgR cAMP Rel EC50 (human glucagon receptor): > 5 µM

B3: Example 42 (peptide)
peptide: Y[Aib]EGT[αMeF]ISDYSIALDKK([AEEA-AEEA-γGlu-C20 diacid])HQ[Aib]DFVE[4Pal]LLEQGPSSGAPPPS-NH2
modifications: N-terminus assumed
SMILES: CC[C@H](C)[C@H](NC(=O)[C@H](CO)NC(=O)[C@H](Cc1ccc(O)cc1)NC(=O)[C@H](CC(=O)O)NC(=O)[C@H](CO)NC(=O)[C@@H](NC(=O)[C@](C)(Cc1ccccc1)NC(=O)[C@@H](NC(=O)CNC(=O)[C@H](CCC(=O)O)NC(=O)C(C)(C)NC(=O)[C@@H](N)Cc1ccc(O)cc1)[C@@H](C)O)[C@@H](C)CC)C(=O)N[C@@H](C)C(=O)N[C@@H](CC(C)C)C(=O)N[C@@H](CC(=O)O)C(=O)N[C@@H](CCCCN)C(=O)N[C@@H](CCCCNC(=O)COCCOCCNC(=O)COCCOCCNC(=O)CC[C@H](NC(=O)CCCCCCCCCCCCCCCCCCC(=O)O)C(=O)O)C(=O)N[C@@H](Cc1c[nH]cn1)C(=O)N[C@@H](CCC(N)=O)C(=O)NC(C)(C)C(=O)N[C@@H](CC(=O)O)C(=O)N[C@@H](Cc1ccccc1)C(=O)N[C@H](C(=O)N[C@@H](CCC(=O)O)C(=O)N[C@@H](Cc1ccncc1)C(=O)N[C@@H](CC(C)C)C(=O)N[C@@H](CC(C)C)C(=O)N[C@@H](CCC(=O)O)C(=O)N[C@@H](CCC(N)=O)C(=O)NCC(=O)N1CCC[C@H]1C(=O)N[C@@H](CO)C(=O)N[C@@H](CO)C(=O)NCC(=O)N[C@@H](C)C(=O)N1CCC[C@H]1C(=O)N1CCC[C@H]1C(=O)N1CCC[C@H]1C(=O)N[C@@H](CO)C(N)=O)C(C)C
- hGIPR cAMP Rel EC50 [1]: 0.0091 nM
- hGLP1R cAMP Rel EC50 (human GLP-1 receptor): 815 nM
- hGcgR cAMP Rel EC50 (human glucagon receptor): > 5 µM

B4: Example 45 (peptide)
peptide: Y[Aib]EGTFISDYSI[αMeL]LDKK([AEEA-AEEA-γGlu-C20 diacid])HQ[Aib]DFVE[4Pal]LLETGPSSGAPPPS-NH2
modifications: N-terminus assumed
SMILES: CC[C@H](C)[C@H](NC(=O)[C@H](Cc1ccccc1)NC(=O)[C@@H](NC(=O)CNC(=O)[C@H](CCC(=O)O)NC(=O)C(C)(C)NC(=O)[C@@H](N)Cc1ccc(O)cc1)[C@@H](C)O)C(=O)N[C@@H](CO)C(=O)N[C@@H](CC(=O)O)C(=O)N[C@@H](Cc1ccc(O)cc1)C(=O)N[C@@H](CO)C(=O)N[C@H](C(=O)N[C@@](C)(CC(C)C)C(=O)N[C@@H](CC(C)C)C(=O)N[C@@H](CC(=O)O)C(=O)N[C@@H](CCCCN)C(=O)N[C@@H](CCCCNC(=O)COCCOCCNC(=O)COCCOCCNC(=O)CC[C@H](NC(=O)CCCCCCCCCCCCCCCCCCC(=O)O)C(=O)O)C(=O)N[C@@H](Cc1c[nH]cn1)C(=O)N[C@@H](CCC(N)=O)C(=O)NC(C)(C)C(=O)N[C@@H](CC(=O)O)C(=O)N[C@@H](Cc1ccccc1)C(=O)N[C@H](C(=O)N[C@@H](CCC(=O)O)C(=O)N[C@@H](Cc1ccncc1)C(=O)N[C@@H](CC(C)C)C(=O)N[C@@H](CC(C)C)C(=O)N[C@@H](CCC(=O)O)C(=O)N[C@H](C(=O)NCC(=O)N1CCC[C@H]1C(=O)N[C@@H](CO)C(=O)N[C@@H](CO)C(=O)NCC(=O)N[C@@H](C)C(=O)N1CCC[C@H]1C(=O)N1CCC[C@H]1C(=O)N1CCC[C@H]1C(=O)N[C@@H](CO)C(N)=O)[C@@H](C)O)C(C)C)[C@@H](C)CC
- hGIPR cAMP Rel EC50 [1]: 0.049 nM
- hGLP1R cAMP Rel EC50 (human GLP-1 receptor): > 5000 nM
- hGcgR cAMP Rel EC50 (human glucagon receptor): 1.69 µM

B5: Example 44 (peptide)
peptide: Y[Aib]EGT[αMeF]ISDYSIALDKK([AEEA-AEEA-γGlu-C20 diacid])HQ[Aib]DFVE[4Pal]LLEGGPSSGAPPPS-NH2
modifications: N-terminus assumed
SMILES: CC[C@H](C)[C@H](NC(=O)[C@H](CO)NC(=O)[C@H](Cc1ccc(O)cc1)NC(=O)[C@H](CC(=O)O)NC(=O)[C@H](CO)NC(=O)[C@@H](NC(=O)[C@](C)(Cc1ccccc1)NC(=O)[C@@H](NC(=O)CNC(=O)[C@H](CCC(=O)O)NC(=O)C(C)(C)NC(=O)[C@@H](N)Cc1ccc(O)cc1)[C@@H](C)O)[C@@H](C)CC)C(=O)N[C@@H](C)C(=O)N[C@@H](CC(C)C)C(=O)N[C@@H](CC(=O)O)C(=O)N[C@@H](CCCCN)C(=O)N[C@@H](CCCCNC(=O)COCCOCCNC(=O)COCCOCCNC(=O)CC[C@H](NC(=O)CCCCCCCCCCCCCCCCCCC(=O)O)C(=O)O)C(=O)N[C@@H](Cc1c[nH]cn1)C(=O)N[C@@H](CCC(N)=O)C(=O)NC(C)(C)C(=O)N[C@@H](CC(=O)O)C(=O)N[C@@H](Cc1ccccc1)C(=O)N[C@H](C(=O)N[C@@H](CCC(=O)O)C(=O)N[C@@H](Cc1ccncc1)C(=O)N[C@@H](CC(C)C)C(=O)N[C@@H](CC(C)C)C(=O)N[C@@H](CCC(=O)O)C(=O)NCC(=O)NCC(=O)N1CCC[C@H]1C(=O)N[C@@H](CO)C(=O)N[C@@H](CO)C(=O)NCC(=O)N[C@@H](C)C(=O)N1CCC[C@H]1C(=O)N1CCC[C@H]1C(=O)N1CCC[C@H]1C(=O)N[C@@H](CO)C(N)=O)C(C)C
- hGIPR cAMP Rel EC50 [1]: 0.0084 nM
- hGLP1R cAMP Rel EC50 (human GLP-1 receptor): 1180 nM
- hGcgR cAMP Rel EC50 (human glucagon receptor): > 5 µM

B6: Example 43 (peptide)
peptide: Y[Aib]EGT[αMeF]ISDYSIALDKK([AEEA-AEEA-γGlu-C20 diacid])HQ[Aib]DFVE[4Pal]LLEAGPSSGAPPPS-NH2
modifications: N-terminus assumed
SMILES: CC[C@H](C)[C@H](NC(=O)[C@H](CO)NC(=O)[C@H](Cc1ccc(O)cc1)NC(=O)[C@H](CC(=O)O)NC(=O)[C@H](CO)NC(=O)[C@@H](NC(=O)[C@](C)(Cc1ccccc1)NC(=O)[C@@H](NC(=O)CNC(=O)[C@H](CCC(=O)O)NC(=O)C(C)(C)NC(=O)[C@@H](N)Cc1ccc(O)cc1)[C@@H](C)O)[C@@H](C)CC)C(=O)N[C@@H](C)C(=O)N[C@@H](CC(C)C)C(=O)N[C@@H](CC(=O)O)C(=O)N[C@@H](CCCCN)C(=O)N[C@@H](CCCCNC(=O)COCCOCCNC(=O)COCCOCCNC(=O)CC[C@H](NC(=O)CCCCCCCCCCCCCCCCCCC(=O)O)C(=O)O)C(=O)N[C@@H](Cc1c[nH]cn1)C(=O)N[C@@H](CCC(N)=O)C(=O)NC(C)(C)C(=O)N[C@@H](CC(=O)O)C(=O)N[C@@H](Cc1ccccc1)C(=O)N[C@H](C(=O)N[C@@H](CCC(=O)O)C(=O)N[C@@H](Cc1ccncc1)C(=O)N[C@@H](CC(C)C)C(=O)N[C@@H](CC(C)C)C(=O)N[C@@H](CCC(=O)O)C(=O)N[C@@H](C)C(=O)NCC(=O)N1CCC[C@H]1C(=O)N[C@@H](CO)C(=O)N[C@@H](CO)C(=O)NCC(=O)N[C@@H](C)C(=O)N1CCC[C@H]1C(=O)N1CCC[C@H]1C(=O)N1CCC[C@H]1C(=O)N[C@@H](CO)C(N)=O)C(C)C
- hGIPR cAMP Rel EC50 [1]: 0.0154 nM
- hGLP1R cAMP Rel EC50 (human GLP-1 receptor): 1020 nM
- hGcgR cAMP Rel EC50 (human glucagon receptor): > 5 µM
